Data published in patent US9284543B2, “Neutral active soluble truncated PH20 polypeptides and uses thereof” (Halozyme, Inc., priority 2008, dated 2016).

B1: SPAM1-VCID: C-terminally truncated human PH20, precursor 466 aa (SEQ ID NO:34), mature 431 aa (SEQ ID NO:86) (protein, listed as Homo sapiens)
chain 1: MGVLKFKHIFFRSFVKSSGVSQIVFTFLLIPCCLTLNFRAPPVIPNVPFLWAWNAPSEFCLGKFDEPLDMSLFSFIGSPRINATGQGVTIFYVDRLGYYPYIDSITGVTVNGGIPQKISLQDHLDKAKKDITFYMPVDNLGMAVIDWEEWRPTWARNWKPKDVYKNRSIELVQQQNVQLSLTEATEKAKQEFEKAGKDFLVETIKLGKLLRPNHLWGYYLFPDCYNHHYKKPGYNGSCFNVEIKRNDDLSWLWNESTALYPSIYLNTQQSPVAATLYVRNRVREAIRVSKIPDAKSPLPVFAYTRIVFTDQVLKFLSQDELVYTFGETVALGASGIVIWGTLSIMRSMKSCLLLDNYMETILNPYIINVTLAAKMCSQVLCQEQGVCIRKNWNSSDYLHLNPDNFAIQLEKGGKFTVRGKPTLEDLEQFSEKFYCSCYSTLSCKEKADVKDTDAVDVCIADGVCID
chain 2: LNFRAPPVIPNVPFLWAWNAPSEFCLGKFDEPLDMSLFSFIGSPRINATGQGVTIFYVDRLGYYPYIDSITGVTVNGGIPQKISLQDHLDKAKKDITFYMPVDNLGMAVIDWEEWRPTWARNWKPKDVYKNRSIELVQQQNVQLSLTEATEKAKQEFEKAGKDFLVETIKLGKLLRPNHLWGYYLFPDCYNHHYKKPGYNGSCFNVEIKRNDDLSWLWNESTALYPSIYLNTQQSPVAATLYVRNRVREAIRVSKIPDAKSPLPVFAYTRIVFTDQVLKFLSQDELVYTFGETVALGASGIVIWGTLSIMRSMKSCLLLDNYMETILNPYIINVTLAAKMCSQVLCQEQGVCIRKNWNSSDYLHLNPDNFAIQLEKGGKFTVRGKPTLEDLEQFSEKFYCSCYSTLSCKEKADVKDTDAVDVCIADGVCID
modifications: HuPH20 precursor 1-466; Mature HuPH20 36-466
B2: SPAM1-CIDA: C-terminally truncated human PH20, precursor 467 aa (SEQ ID NO:33), mature 432 aa (SEQ ID NO:85) (protein, listed as Homo sapiens)
chain 1: MGVLKFKHIFFRSFVKSSGVSQIVFTFLLIPCCLTLNFRAPPVIPNVPFLWAWNAPSEFCLGKFDEPLDMSLFSFIGSPRINATGQGVTIFYVDRLGYYPYIDSITGVTVNGGIPQKISLQDHLDKAKKDITFYMPVDNLGMAVIDWEEWRPTWARNWKPKDVYKNRSIELVQQQNVQLSLTEATEKAKQEFEKAGKDFLVETIKLGKLLRPNHLWGYYLFPDCYNHHYKKPGYNGSCFNVEIKRNDDLSWLWNESTALYPSIYLNTQQSPVAATLYVRNRVREAIRVSKIPDAKSPLPVFAYTRIVFTDQVLKFLSQDELVYTFGETVALGASGIVIWGTLSIMRSMKSCLLLDNYMETILNPYIINVTLAAKMCSQVLCQEQGVCIRKNWNSSDYLHLNPDNFAIQLEKGGKFTVRGKPTLEDLEQFSEKFYCSCYSTLSCKEKADVKDTDAVDVCIADGVCIDA
chain 2: LNFRAPPVIPNVPFLWAWNAPSEFCLGKFDEPLDMSLFSFIGSPRINATGQGVTIFYVDRLGYYPYIDSITGVTVNGGIPQKISLQDHLDKAKKDITFYMPVDNLGMAVIDWEEWRPTWARNWKPKDVYKNRSIELVQQQNVQLSLTEATEKAKQEFEKAGKDFLVETIKLGKLLRPNHLWGYYLFPDCYNHHYKKPGYNGSCFNVEIKRNDDLSWLWNESTALYPSIYLNTQQSPVAATLYVRNRVREAIRVSKIPDAKSPLPVFAYTRIVFTDQVLKFLSQDELVYTFGETVALGASGIVIWGTLSIMRSMKSCLLLDNYMETILNPYIINVTLAAKMCSQVLCQEQGVCIRKNWNSSDYLHLNPDNFAIQLEKGGKFTVRGKPTLEDLEQFSEKFYCSCYSTLSCKEKADVKDTDAVDVCIADGVCIDA
modifications: HuPH20 precursor 1-467; Mature HuPH20 36-467
B3: SPAM1-DAFL: C-terminally truncated human PH20, precursor 469 aa (SEQ ID NO:31), mature 434 aa (SEQ ID NO:83) (protein, listed as Homo sapiens)
chain 1: MGVLKFKHIFFRSFVKSSGVSQIVFTFLLIPCCLTLNFRAPPVIPNVPFLWAWNAPSEFCLGKFDEPLDMSLFSFIGSPRINATGQGVTIFYVDRLGYYPYIDSITGVTVNGGIPQKISLQDHLDKAKKDITFYMPVDNLGMAVIDWEEWRPTWARNWKPKDVYKNRSIELVQQQNVQLSLTEATEKAKQEFEKAGKDFLVETIKLGKLLRPNHLWGYYLFPDCYNHHYKKPGYNGSCFNVEIKRNDDLSWLWNESTALYPSIYLNTQQSPVAATLYVRNRVREAIRVSKIPDAKSPLPVFAYTRIVFTDQVLKFLSQDELVYTFGETVALGASGIVIWGTLSIMRSMKSCLLLDNYMETILNPYIINVTLAAKMCSQVLCQEQGVCIRKNWNSSDYLHLNPDNFAIQLEKGGKFTVRGKPTLEDLEQFSEKFYCSCYSTLSCKEKADVKDTDAVDVCIADGVCIDAFL
chain 2: LNFRAPPVIPNVPFLWAWNAPSEFCLGKFDEPLDMSLFSFIGSPRINATGQGVTIFYVDRLGYYPYIDSITGVTVNGGIPQKISLQDHLDKAKKDITFYMPVDNLGMAVIDWEEWRPTWARNWKPKDVYKNRSIELVQQQNVQLSLTEATEKAKQEFEKAGKDFLVETIKLGKLLRPNHLWGYYLFPDCYNHHYKKPGYNGSCFNVEIKRNDDLSWLWNESTALYPSIYLNTQQSPVAATLYVRNRVREAIRVSKIPDAKSPLPVFAYTRIVFTDQVLKFLSQDELVYTFGETVALGASGIVIWGTLSIMRSMKSCLLLDNYMETILNPYIINVTLAAKMCSQVLCQEQGVCIRKNWNSSDYLHLNPDNFAIQLEKGGKFTVRGKPTLEDLEQFSEKFYCSCYSTLSCKEKADVKDTDAVDVCIADGVCIDAFL
modifications: HuPH20 precursor 1-469; Mature HuPH20 36-469
B4: SPAM1-IDAF: C-terminally truncated human PH20, precursor 468 aa (SEQ ID NO:32), mature 433 aa (SEQ ID NO:84) (protein, listed as Homo sapiens)
chain 1: MGVLKFKHIFFRSFVKSSGVSQIVFTFLLIPCCLTLNFRAPPVIPNVPFLWAWNAPSEFCLGKFDEPLDMSLFSFIGSPRINATGQGVTIFYVDRLGYYPYIDSITGVTVNGGIPQKISLQDHLDKAKKDITFYMPVDNLGMAVIDWEEWRPTWARNWKPKDVYKNRSIELVQQQNVQLSLTEATEKAKQEFEKAGKDFLVETIKLGKLLRPNHLWGYYLFPDCYNHHYKKPGYNGSCFNVEIKRNDDLSWLWNESTALYPSIYLNTQQSPVAATLYVRNRVREAIRVSKIPDAKSPLPVFAYTRIVFTDQVLKFLSQDELVYTFGETVALGASGIVIWGTLSIMRSMKSCLLLDNYMETILNPYIINVTLAAKMCSQVLCQEQGVCIRKNWNSSDYLHLNPDNFAIQLEKGGKFTVRGKPTLEDLEQFSEKFYCSCYSTLSCKEKADVKDTDAVDVCIADGVCIDAF
chain 2: LNFRAPPVIPNVPFLWAWNAPSEFCLGKFDEPLDMSLFSFIGSPRINATGQGVTIFYVDRLGYYPYIDSITGVTVNGGIPQKISLQDHLDKAKKDITFYMPVDNLGMAVIDWEEWRPTWARNWKPKDVYKNRSIELVQQQNVQLSLTEATEKAKQEFEKAGKDFLVETIKLGKLLRPNHLWGYYLFPDCYNHHYKKPGYNGSCFNVEIKRNDDLSWLWNESTALYPSIYLNTQQSPVAATLYVRNRVREAIRVSKIPDAKSPLPVFAYTRIVFTDQVLKFLSQDELVYTFGETVALGASGIVIWGTLSIMRSMKSCLLLDNYMETILNPYIINVTLAAKMCSQVLCQEQGVCIRKNWNSSDYLHLNPDNFAIQLEKGGKFTVRGKPTLEDLEQFSEKFYCSCYSTLSCKEKADVKDTDAVDVCIADGVCIDAF
modifications: HuPH20 precursor 1-468; Mature HuPH20 36-468

Test system: CHO-S cells
Assay: Western blot analysis of PH20 expression in media and cells after transient expression
Type: cell-based, Chinese Hamster
Settings: media versus cells
Method: The mutant PH20-HZ24 plasmids generated in Example 1 were transiently […] into CHO—S cells (derived from Chinese Hamster Ovary CHO K1 cells) using GeneJuice® (Novagen) according to the manufacturer's instructions. In short, the CHO—S cells were grown in CD CHO medium supplemented with L-glutamine. Prior to transfection, the CHO—S cells were plated in 6-well plates, with approximately 5×10^5 cells per well, and grown overnight at 37° C. with 5% CO2. The medium was then removed and the CHO—S cells were washed 2 times with 1 mL serum-free medium. GeneJuice® was mixed with serum-free media followed by the addition of 2 μg mutant-HZ24 DNA. After incubating at room temperature for 5-15 minutes, the GeneJuice®/DNA mixture was added dropwise to an individual well containing the washed CHO—S cells. After 4 hours, the medium was replaced with 1 mL CD-CHO medium supplemented with L-glutamine and the cells were incubated for 72 hours at 37° C. with 5% CO2. Following expression, the media and cells were harvested separately.
The mutant PH20-HZ24 plasmids generated in Example 1 were transiently […] into CHO—S cells using GeneJuice® (Novagen) according to the manufacturer's instructions. […]
In this example, following transient expression, as described in Example 2 above, the media and cells were harvested separately and analyzed for PH20 expression and solublility by Western blot analysis. Solubility of the C-terminus truncation mutants was determined by examining whether the expressed protein was present in the growth media or in the cells. […] Cells expressing these mutants were treated with phosphoinositol-phospholipase C (PI-PLC), which cleaves the GPI-anchor allowing the release of soluble protein into the media, and the presence of PH20 in the resulting media and cells was determined by Western blot analysis.
Non-reduced samples were run on a 4-20% Tris-Glycine gel and transferred to PVDF membrane using iBlot (Invitrogen). For the Western blot, rabbit anti-PH20 IgG (0.5 μg/mL) was used as the primary antibody and HRP-conjugated goat anti-rabbit IgG (0.1 ng/mL, Cat#DC03L, EMD) was used as the secondary antibody. Evidence of expression is determined by a band at approximately 66 kDa, corresponding to recombinant human PH20 hyaluronidase.

Molecule	Expressed in Media
B1	YES
B2	YES
B3	YES
B4	YES

Test system: not listed separately
Assay: Microtiter hyaluronidase activity assay with biotinylated-hyaluronic acid
Type: biochemical
Settings: Table 6; 72 hour post transfection supernatant; pH 5.5
Method: In Example 4, the hyaluronidase activity of truncated human PH20 hyaluronidase is determined using biotinylated hyaluronic acid. The free carboxyl groups on the glucuronic acid residues of hyaluronic acid are biotinylated, and the biotinylated hyaluronic acid substrate is covalently coupled to a microtiter plate. Following incubation with hyaluronidase, the residual biotinylated hyaluronic acid substrate is detected using an avidin-peroxidase reaction, and compared to that obtained following reaction with hyaluronidase standards of known activity. […] The sensitivity permits rapid measurement of hyaluronidase activity from cultured cells and biological samples with an inter-assay variation of less than 10%.
In this example, the human PH20 hyaluronidase carboxy-terminus deletion mutants were tested for their PH20 hyaluronidase activity using a microtiter assay with biotinylated-hyaluronic acid (biotinylated-HA or bHA). The human PH20 hyaluronidase carboxy-terminus deletion mutants were tested for hyaluronidase activity at both pH 7.4 and pH 5.5.
In short, a 4×BH 96-well plate was coated with biotinylated-HA (1.1 MDa). The 72 hour post transfection supernatant from cells transfected with human PH20 hyaluronidase carboxy-terminus deletion mutants was diluted in buffer at either pH 7.4 or pH 5.5 and added to individual wells of the plate and allowed to incubate at 37° C. for 90 minutes. The reaction was terminated by addition of 4M guanidine HCl. The wells were washed 4× with Phosphate Buffered Saline with Tween20 (PBST) to remove any digested biotinylated-HA followed by addition of streptavidin-HRP for 1 hour at room temperature. The wells were washed 4× with PBST and the plate was developed with TMB. The plate was read at 450 nm using an ELISA plate reader. Hyaluronidase activity (in Units/mL) was determined by interpolating the measured absorbance at 450 nm with a hyaluronidase reference standard curve. Full length mature human PH20 hyaluronidase and untransfected CHO cells were used as positive and negative controls.

Molecule	pH 5.5 Activity [Units/ml]
B1	0.2115
B2	0.4725
B3	2.2365
B4	0.6278

Same assay, conditions: Table 6; 72 hour post transfection supernatant; pH 7.4

Molecule	pH 7.4 Activity [Units/ml]
B1	0
B2	0.5535
B3	2.3895
B4	0.5625
